Experimental data reported in the nanobody polyreactivity screen of Harvey et al. (2022).

Assay: yeast display, Sf9 membrane polyspecificity reagent, FACS + sequencing; frameworks hold sequencing errors
Summary of the method: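 Nanobodies from a synthetic yeast display library (Saccharomyces cerevisiae BJ5465), induced 36–48 hours with galactose, were stained 1 hour at 4 °C with 10% biotinylated, detergent-solubilized Sf9 membrane reagent, enriched on streptavidin microbeads, then FACS-sorted. Anti-HA (expression) and streptavidin (reagent binding) fluorescence set low and high (top ~1%) gates. Polyreactivity labels come from the gate of origin. Genes were colony-PCR amplified, MiSeq 2 × 250 sequenced and filtered by CDR length.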

Row | Sequence | polyreactivity (PSR sort gate)
1 | QVQLVDSGGGLVQAGGSLRLSSAASGSTFRYYAMGWYRQAPGKERELVAAISRSGGRTYYADSVKWRFTISRDKAKNTVYLQINSLKPEDNAVYYCNKDSRASPYGYWGQGTQVTVSS | high polyreactivity
2 | QVQLVESGGGLVQAGGSLRLSCAASGRIFEPYTMGWYRQAPGKEREFVATITASGDSTYYADSVKGRFTISRDNAKNTVYLQMNSLKPEDTAVYYCAAAPFGGYEYDYWGQGTQVTVSS | high polyreactivity
3 | QVQLVESGGGLVQAGGSLRLSCAASGSLFSGNAMGWYRQAPGKEREFVAAISRSGSSTYYADSVKGRFTISRDNAKNPVYLQMNSLKPEDTAVYYCASRFGDMGYWGQGTQVTVSS | high polyreactivity
4 | QVQLVESGGGLVQAGGSLRLSCAASGRTLYIYAMGWYRQAPGKERELVAAITRRGDSTYYADSVKGRFTISRDNAKNTVYLQMNSLKPEDTAVYYCAADFQDTSSQYDPAYEYWGQGTQVTVSS | low polyreactivity
5 | QVQLVESGGGLVQAGGSLRLSCAASGFTFVYYNMGWYRQAPGKERELVAAITQSGGRTYYADSVKGRFTISRDNAKNTVYLQMNCLKPEDTAVYYCAARLWGKRDYRMDYWGQGSQVTVSS | high polyreactivity
6 | QVQLVESGGGLVQAGGSLRLSCAASGSIFSYYAMGWYRQAPGKERELVATISSGGSTNYADSVKGRFTISRDNAKNTVYLQMNSLKPEDTAVYYCAATIGHNGFDYWGQGTQVTVSS | low polyreactivity
7 | QVQLVESGGGLVQAGGSLRLSCAASGSISQPYAMGGYRQAPGKERELVAAIRWSGGSTYYADSVKGRFTISRDNAKNTVYLEMNCLNPEDTAVYYCNKTTYYPSDYVYWGQGTQVTVSS | low polyreactivity
8 | QVQLVESGGGLVQAGGSLRLSCPASGGNFPFNGMGWSRQAPGKERELVAAISSGGRTYYADSVKGRFTISRDNAKNTVYLQMNSLKPEDTAVYYCAARTSRYYYYPYAFYWGQGTQVTVSS | high polyreactivity
9 | QVQLVESGGGLVQAGGSLRLSCAASGSTFYKYAMGWYRPAPGKERELVATINISGGSTSYADSVKGRFTISRDNAKNTVYLQMNSLKPQDTAVYYSNADAFYLGHDYWGQGTEVTVSS | high polyreactivity
10 | QVQLVESGGVLVQAGGSLRLTCAASGRTFGHYAMGWYRQAPGKERELVAANTSSAGRTRYADSVKGRFTISRDYAKNTVYLQMNSLKPEDTAVYYCAVAEGYSPAYLRDYWGQGTQVTVSS | high polyreactivity
11 | QVQLVESGGGLVQAGGSLRLSCAASGSTFTLYAMGWYRQAPGKERELVAAISWSTTSTYYADSVKGRFTISRDNAKNTVYLQMNSLKPEDTAVYYCAAELYRAEYDYWGQGTQVTVSS | high polyreactivity
12 | QVQLVESGGGLVQAGGSLRLSCAASGSTFYTYTMGWYRQAPGKERELVAAISSSGGDTYYADSVKGRFTISRDNAKNTVYLQMNSLKPEDSAVYYCAALGAFPSLEFDYWGQGTQVTVSS | low polyreactivity
13 | QVQLVESGGGLVQAGGSLRLSCAASGRIFQKYAMGWYRQAPGKERELVAAISSGDSTYADSVKGRFTISRDNAKNTVYLQMNSLKPEDTAVYYCAVDLYDPWWYSYIGEYEYWGQGTQVTVSS | low polyreactivity
14 | QVQLVESGGGLVQAGGSLRLTCAASGRIFDYNDMGWYRQAPGKERELVAAITSDGSTNYADSVKGRFTISRDNAKNTVFLQMNSLKPEDPAVYYCAADTGETFDSIYDYWGQGTQVTVSS | low polyreactivity
15 | QVQLVESGGGLVQAGGSLRISCAASGGTFQAYAMGWYRPAPGKERELVAAITRRGTRTYYADSVKGRFTISRDNAKNTVYLQMNSLKPEDTAVYYCAAVRYPNWYDYWGQGTQVTVSS | high polyreactivity
16 | QDQLVESGGALVQAGGSLRLSCAASGSIFDYNAMGWYRQAPRKDRELVAAISVNGGNTYYADSVKGRFTISRDNAKNTVYLQMNRLKPEDTGVSYCAADSYGGSNYDFWGQGTQVTVSS | low polyreactivity
17 | QVQLVESGGGLVQAGGSLRLSCAASGSTFAQNTMGWYRQAPGKERELVATISDGGGSTYYADSVKGRFTISRDNAKNTVYLQMNSLKPDDTAVYYCNTDRFWPSDYWGQGTQVTVSS | low polyreactivity
